Laboratory results from patent US20080261241A1, “Targeted ubiquitination of proteins and screening methods using a new class of ubiquitin ligase proteins” (INSTITUT PASTEUR, priority 2007, published 2008).

T1: Ste7 (Saccharomyces cerevisiae, UniProt P06784)
T1 construct: made in house
T1 sequence (P06784 1-515): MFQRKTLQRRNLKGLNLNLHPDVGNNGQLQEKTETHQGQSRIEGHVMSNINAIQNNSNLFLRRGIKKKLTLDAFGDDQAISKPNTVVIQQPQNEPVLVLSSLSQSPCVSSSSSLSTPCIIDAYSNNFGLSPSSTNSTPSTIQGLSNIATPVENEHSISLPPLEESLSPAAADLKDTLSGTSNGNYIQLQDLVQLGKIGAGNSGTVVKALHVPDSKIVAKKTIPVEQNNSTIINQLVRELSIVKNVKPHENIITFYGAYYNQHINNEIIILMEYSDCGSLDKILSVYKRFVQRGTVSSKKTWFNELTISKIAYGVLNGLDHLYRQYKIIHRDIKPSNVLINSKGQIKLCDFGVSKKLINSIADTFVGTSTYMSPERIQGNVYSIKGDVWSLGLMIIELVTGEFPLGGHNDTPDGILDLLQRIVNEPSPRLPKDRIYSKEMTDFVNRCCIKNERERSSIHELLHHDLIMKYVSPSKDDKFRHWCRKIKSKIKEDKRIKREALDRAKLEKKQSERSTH


Legend:
[1] = target: T2, HA-tagged ubiquitin (Homo sapiens, UniProt P0CG47); assay: In vitro polyubiquitination of ubiquitin; type: biochemical; conditions: HA-ubiquitin, E1, UbcH5B; anti-HA antibodies
T2 construct: multiples of the size of HA-ubiquitin (9 kDa); purchased Boston Biochem
Procedure: (§1) Ubiquitin biotinylated on Lys residues can not support polyubiquitination reactions. To test if IpaH9.8 could polyubiquitinate proteins, reactions were performed using HA-tagged ubiquitin, instead of biotinylated ubiquitin.
(§2) Reactions were incubated at 37° C. for 1 h and stopped by the addition of an equal volume of Laemmli sample buffer (62.5 mM Tris-Hcl, pH 6.8, 10% glycerol, 2% SDS, 0.0005% bromophenol blue) containing, or not, 100 mM DTT. Ubiquitination reactions were carried out in the same manner except that 2 μg of HA-tagged ubiquitin, ubiquitin, ubiquitin-48R or […] were used instead of biotinylated ubiquitin. […] Reaction mixtures were separated by SDS/PAGE, transferred onto a nitrocellulose membrane and probed with specific antibodies or peroxidase-coupled streptavidin when biotinylated ubiquitin was used.

[2] = test system: HA-tagged ubiquitin; assay: In vitro polyubiquitination of ubiquitin; type: biochemical; conditions: K48R and K63R ubiquitin variants
Procedure: as §1, §2

[3] = test system: MAPKK Ste7; assay: Immunoblot of Ste7 amount in yeast; type: cell-based, Saccharomyces cerevisiae
[4] = test system: pheromone response pathway at or downstream of Ste11; assay: FUS1-HIS3 reporter growth of strain SY2625 with Ste11-4; type: cell-based, Saccharomyces cerevisiae; conditions: SY2625 with plasmid encoding Ste11-4; medium lacking histidine with 3-amino triazole
Description: To identify the target of IpaH9.8, yeast strains were used that were altered in the signalling cascade. […] The constitutively active variant of the MAPKKK Ste11 encoded by the allele STE11-4 promotes elevated transcription of pheromone responsive genes, even in the absence of pheromone (Stevenson et al., 1992). Growth of the strain SY2625 harbouring a FUS1-HIS3 pheromone-inducible reporter is dependent on signalling through the pheromone response pathway on a medium lacking histidine and containing 3-amino triazole (Evangelista et al., 1997). SY2625 containing a plasmid encoding Ste11-4, but not those containing the vector, were His^+, consistent with activation of the pathway by Ste11-4 and transcription of FUS1-HIS3. […] Upon phosphorylation by Ste11, Ste7 is ubiquitinated and, following removal of ubiquitin chains by the specific deubiquitinase Ubp3, is degraded by the proteasome (Wang et al., 2003).

[5] = test system: pheromone response MAPK pathway; assay: Halo assay with α-factor disk; type: cell-based, Saccharomyces cerevisiae; conditions: wild-type yeast, exposure to α-factor
Description: (§3) To gain insight to IpaH9.8 activity, Saccharomyces cerevisiae was employed as a surrogate model. […] Detection of mating pheromone by a G protein-coupled receptor activates an archetypal MAPK signalling cascade, inducing both arrest of the cell cycle and transcription of mating genes. The pheromone α-factor diffusing from a disk causes cell cycle arrest in […] cells, resulting in a halo of inhibited growth (Hoffman et al., 2002).
Standard media and techniques were used for transformation, maintenance, and growth of yeast (Guthrie C, 1991). Halo assays were performed as described (Hoffman et al., 2002) using disks impregnated with 15 μg of α-factor. erg6 ? yeast were transformed with plasmids encoding IpaH9.8 or IpaH9.8-C337A and grown in selective media containing 1% raffinose to mid log phase. Following addition of MG132 (100 μM) and galactose (2%), cultures were incubated for 2 h and cell extracts were prepared as described (Wang et al., 2003). β-Galactosidase assays were performed as described (Guarente, 1983).

[6] = test system: sst2Δ cells; assay: Growth of sst2Δ yeast in the presence of pheromone; type: cell-based, Saccharomyces cerevisiae; conditions: galactose-induced production, α-factor plates
[7] = test system: pheromone response pathway downstream of Ste4; assay: Growth arrest by overproduction of Ste4; type: cell-based, Saccharomyces cerevisiae
[8] = target: T3, UbcH5B (Homo sapiens, UniProt P62837); assay: In vitro removal of ubiquitin from ubiquitinated E2; type: biochemical; conditions: biotinylated ubiquitin, E1, UbcH5B
T3 construct: His; made in house
T3 sequence (P62837 whole entry): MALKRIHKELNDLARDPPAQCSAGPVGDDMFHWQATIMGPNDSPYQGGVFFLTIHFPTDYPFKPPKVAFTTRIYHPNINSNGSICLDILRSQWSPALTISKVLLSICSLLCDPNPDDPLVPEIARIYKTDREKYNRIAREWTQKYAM
Procedure: The observation that the degradation of Ste7 promoted by IpaH9.8 is proteasome-dependent led us to test in vitro if IpaH9.8 might be involved in an ubiquitination pathway. It was discovered that the E2 enzyme UbcH5B was apparently not ubiquitinated by E1 in the presence of GST-IpaH9.8 (FIG. 2B).
as §2

[9] = target: T1, Ste7; assay: In vitro ubiquitination of Ste7; type: biochemical; conditions: Ste7, Ste11-4, Kss1 complexes, native ubiquitin, E1, UbcH5B; anti-Ste7 antibodies
Procedure: (§4) Thus, IpaH9.8 is an E3 ubiquitin ligase for Ste7; the proteasome-dependent disappearance of Ste7 in yeast was likely due to the degradation of Ste7 following its polyubiquitination by IpaH9.8 and IpaH7.8.
as §2

[10] = target: T4, ubiquitin (Homo sapiens, UniProt P0CG47); assay: In vitro autoubiquitination; type: biochemical; conditions: E1, UbcH5B
T4 construct: UbcH7, E1, ubiquitin, HA-ubiquitin, biotinylated ubiquitin, ubiquitin-K48R and -K63R; purchased Boston Biochem
Procedure: The amide linkage, but not the thioesther linkage, of ubiquitin to ubiquitinated proteins is resistant to dithiothreitol (DTT).
as §4, §2

[11] = test system: pheromone response MAPK pathway; assay: Pheromone-responsive FUS1-lacZ reporter (β-galactosidase); type: cell-based, Saccharomyces cerevisiae; conditions: wild-type yeast, exposure to α-factor
Description: as §3
Invasive wild-type Shigella flexneri 5 M90T-Sm (Allaoui et al., 1992) and its mxiE derivative SF1060 (Mavris et al., 2002) were used for infection. Plasmids were propagated in Escherichia coli DH5α (end A1 hsdR17 sup E44 thi1 recA1 gyrA relA1 lacZYA-argF). To create JRY101, the integrating plasmid pFC23 (O'Rourke and Herskowitz, 1998) containing a FUS-lacZ transcriptional fusion was digested with SphI and transformed into BY4741; Leu+ colonies were tested for pheromone-responsive β-galactosidase production. JRY100 was constructed by PCR-mediated gene disruption in strain BY4741, replacing the entire open reading frame of UBP3 by the Nat marker, as described (Goldstein and McCusker, 1999; Longtine et al., 1998); the gene replacement was confirmed by PCR.
Standard media and techniques were used for transformation, maintenance, and growth of yeast (Guthrie C, 1991). […]

[12] = target: T5, PKN1 (Homo sapiens, UniProt Q16512); assay: In vitro ubiquitination of PKN1; type: biochemical, mammalian; conditions: GST-PKN1, E1, native ubiquitin, UbcH5B; anti-PKN1 antibodies
T5 construct: purchased Invitrogen
T5 sequence (Q16512 whole entry): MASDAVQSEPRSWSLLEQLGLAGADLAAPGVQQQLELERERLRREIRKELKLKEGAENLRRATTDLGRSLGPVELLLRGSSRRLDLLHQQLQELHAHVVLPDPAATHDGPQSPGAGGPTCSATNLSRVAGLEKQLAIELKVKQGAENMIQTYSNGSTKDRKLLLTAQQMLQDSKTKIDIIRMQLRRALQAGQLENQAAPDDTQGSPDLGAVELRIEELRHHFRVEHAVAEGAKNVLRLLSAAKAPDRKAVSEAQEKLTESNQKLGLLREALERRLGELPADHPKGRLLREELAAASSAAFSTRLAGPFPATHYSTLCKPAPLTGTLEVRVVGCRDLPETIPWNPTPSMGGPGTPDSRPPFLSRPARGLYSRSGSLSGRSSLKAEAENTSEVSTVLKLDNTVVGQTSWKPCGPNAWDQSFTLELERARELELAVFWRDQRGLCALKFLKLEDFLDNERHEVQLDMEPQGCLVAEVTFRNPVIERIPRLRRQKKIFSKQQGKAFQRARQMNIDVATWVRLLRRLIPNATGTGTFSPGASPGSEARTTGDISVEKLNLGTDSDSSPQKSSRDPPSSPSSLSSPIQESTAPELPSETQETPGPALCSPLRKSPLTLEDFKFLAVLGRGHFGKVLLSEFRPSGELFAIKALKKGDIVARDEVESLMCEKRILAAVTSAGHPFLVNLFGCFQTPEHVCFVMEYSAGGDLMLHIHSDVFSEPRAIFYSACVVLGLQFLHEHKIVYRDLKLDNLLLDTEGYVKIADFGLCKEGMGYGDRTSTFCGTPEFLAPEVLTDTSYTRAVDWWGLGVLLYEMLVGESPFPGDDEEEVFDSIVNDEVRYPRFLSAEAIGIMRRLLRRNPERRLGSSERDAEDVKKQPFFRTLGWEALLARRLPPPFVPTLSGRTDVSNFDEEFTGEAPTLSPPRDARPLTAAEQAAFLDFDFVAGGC
Procedure: To test whether SspH1 shares activities with IpaH9.8, a GST-SspH1 recombinant protein was purified. […] Ubiquitination of PKN1 by SspH1; SspH1, IpaH9.8, or IpaH9.8-C337A was incubated with E1, native ubiquitin, UbcH5B, and GST-PKN1 was tested.
as §2

Row | Molecule | polyubiquitination of HA-tagged ubiquitin [1] | linkage of polyubiquitin chains [2] | disappearance of Ste7 ([3]; ubp3Δ and ste11Δ cells) | amount of Ste7 ([3]; wild-type yeast, regardless of stimulation by α-factor) | His phenotype (FUS1-HIS3 reporter) [4] | halo of inhibited growth [5] | growth of sst2Δ cells in the presence of pheromone [6] | rescue of growth arrest [7] | removal of ubiquitin from ubiquitinated UbcH5B [8] | ubiquitination of Ste7 [9] | autoubiquitination (DTT-resistant ubiquitinated protein) ([10]; biotinylated ubiquitin) | autoubiquitination (anti-IpaH antibodies) ([10]; native ubiquitin, MAPK complexes) | expression of FUS1-lacZ reporter gene [11] | ubiquitination of PKN1 [12]
1 | IpaH9.8: Shigella flexneri type III secretion effector protein (SEQ ID NO: 4), E3 ubiquitin ligase; used FLAG-tagged in yeast, GST-fused in vitro (protein, listed as Shigella flexneri, FLAG tag or GST fusion, used FLAG-tagged in yeast, GST-fused in vitro) MLPINNNFSLPQNSFYNTISGTYADYFSAWDKWEKQALPGEERDEAVSRLKECLINNSDELRLDRLNLSSLPDNLPAQITLLNVSYNQLTNLPELPVTLKKLYSASNKLSELPVLPPALESLQVQHNELENLPALPDSLLTMNISYNEIVSLPSLPQALKNLRATRNFLTELPAFSEGNNPVVREYFFDRNQISHIPESILNLRNECSIHISDNPLSSHALQALQRLTSSPDYHGPRIYFSMSDGQQNTLHRPLADAVTAWFPENKQSDVSQIWHAFEHEEHANTFSAFLDRLSDTVSARNTSGFREQVAAWLEKLSASAELRQQSFAVAADATESCEDRVALTWNNLRKTLLVHQASEGLFDNDTGALLSLGREMFRLEILEDIARDKVRTLHFVDEIEVYLAFQTMLAEKLQLSTAVKEMRFYGVSGVTANDLRTAEAMVRSREENEFTDWFSLWGPWHAVLKRTEADRWAQAEEQKYEMLENEYPQRVADRLKASGLSGDADAEREAGAQVMRETEQQIYRQLTDEVLALRLSENGSQLHHS | detected a ladder of ubiquitinated proteins | catalyzed the formation of polyubiquitin chains on Lys-48, but not Lys-63 | still resulted in the disappearance of Ste7 | drastically reduced | His^− | failed to form a halo | allowed sst2Δ cells to grow in the presence of pheromone | rescued this phenotype | promoted the removal of ubiquitin from UbcH5B | larger species that formed only in the presence of IpaH9.8 were detected | a DTT-resistant ubiquitinated protein of the size of GST-IpaH9.8 (FIG. 3) was detected | Both the non- and mono-ubiquitinated forms of IpaH9.8 were detected | failed to form a halo and to induce expression | 
2 | SspH1: Salmonella enterica Typhimurium homologue of IpaH, type III secretion effector; GST-SspH1 recombinant protein (protein, left off: a dimerising Fc or GST) EFMLPINNNFSLPQNSFYNTISGTYADYFSAWDKWEKQALPGEERDEAVSRLKECLINNSDELRLDRLNLSSLPDNLPAQITLLNVSYNQLTNLPELPVTLKKLYSASNKLSELPVLPPALESLQVQHNELENLPALPDSLLTMNISYNEIVSLPSLPQALKNLRATRNFLTELPAFSEGNNPVVREYFFDRNQISHIPESILNLRNECSIHISDNPLSSHALQALQRLTSSPDYHGPRIYFSMSDGQQNTLHRPLADAVTAWFPENKQSDVSQIWHAFEHEEHANTFSAFLDRLSDTVSARNTSGFREQVAAWLEKLSASAELRQQSFAVAADATESCEDRVALTWNNLRKTLLVHQASEGLFDNDTGALLSLGREMFRLEILEDIARDKVRTLHFVDEIEVYLAFQTMLAEKLQLSTAVKEMRFYGVSGVTANDLRTAEAMVRSREENEFTDWFSLWGPWHAVLKRTEADRWAQAEEQKYEMLENEYPQRVADRLKASGLSGDADAEREAGAQVMRETEQQIYRQLTDEVLALRLFENGSQLHHS |  |  |  |  |  |  |  |  |  |  |  |  |  | detected an additional species migrating at a size >250 kDa
